Literature values as cited in PMC8836397.

Key:
[1] = biological target: Leu-enkephalin (Homo sapiens) (UniProt P01210)
UniProt P01210, sequence (P01210 whole entry, looked up): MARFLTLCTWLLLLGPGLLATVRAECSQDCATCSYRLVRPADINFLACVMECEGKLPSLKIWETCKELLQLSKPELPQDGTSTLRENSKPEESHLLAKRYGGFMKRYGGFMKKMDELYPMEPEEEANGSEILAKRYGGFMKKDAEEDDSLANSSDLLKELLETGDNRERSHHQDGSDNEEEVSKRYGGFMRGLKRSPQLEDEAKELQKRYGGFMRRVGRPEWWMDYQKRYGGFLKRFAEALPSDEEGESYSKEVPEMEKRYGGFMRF

Ki (WVYPW (tynorphin analog)) | Ki (IVYPW (tynorphin analog)) | Kd [1] | Substance
126 nM | 100 nM |  | DPP III (from UniProt Q9NY33)
 |  | 3600 nM | DPP III (inactive variant) (from UniProt Q9NY33)
